Source: patent US20190315864A1

Target: Mouse CTLA4-Fc protein (mouse)
Assay: ELISA, control VHH coated 0.5 µg/well, mouse CTLA4-Fc (biotinylated), SA-HRP; blank 0.027

Mouse CTLA4-Fc protein (mouse), sequence (chain, as listed by the source limits assumed): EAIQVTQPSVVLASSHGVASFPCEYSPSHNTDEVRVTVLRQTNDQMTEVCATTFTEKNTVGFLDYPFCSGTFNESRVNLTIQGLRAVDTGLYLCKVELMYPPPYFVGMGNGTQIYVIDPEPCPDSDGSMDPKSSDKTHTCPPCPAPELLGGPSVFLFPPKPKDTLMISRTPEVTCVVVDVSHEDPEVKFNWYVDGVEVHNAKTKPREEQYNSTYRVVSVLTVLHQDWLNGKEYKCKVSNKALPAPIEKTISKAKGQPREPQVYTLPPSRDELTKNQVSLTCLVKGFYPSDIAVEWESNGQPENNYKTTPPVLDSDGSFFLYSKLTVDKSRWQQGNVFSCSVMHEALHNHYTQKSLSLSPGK

“single domain antibody against other unrelated target (control) (VHH)” showed an OD (against mouse CTLA4) of 0.026 OD405.
